# Where no end group is shown, it is not given here.
# B1: Phage-1453 peptide (SEQ ID NO: 1749) (peptide)
# peptide: TCSAGATFHWPQCF
# notes: tested as crude clonal phage supernatant
# B2: Phage-1446 peptide (SEQ ID NO: 1742) (peptide)
# peptide: SCAAVFSFPWSPCL
# notes: as for B1
# B3: Phage-1448 peptide (SEQ ID NO: 1744) (peptide)
# peptide: TCTAGFSYNWPMCF
# notes: as for B1
# B4: Phage-1451 peptide (SEQ ID NO: 1747) (peptide)
# peptide: TCSAGAYYAWPVCL
# notes: as for B1
# B5: Phage-1452 peptide (SEQ ID NO: 1748) (peptide)
# peptide: LCRAGAMWPWPTCL
# notes: as for B1
# B6: Phage-1447 peptide (SEQ ID NO: 1743) (peptide)
# peptide: TCSAGFSYSWPACF
# notes: as for B1
# B7: Phage-1450 peptide (SEQ ID NO: 1746) (peptide)
# peptide: TCSAGATYSWPQCL
# notes: as for B1
# B8: Phage-1454 peptide (SEQ ID NO: 1750) (peptide)
# peptide: TCSAGAHYEWPYCL
# notes: as for B1
# B9: Phage-1455 peptide (SEQ ID NO: 1751) (peptide)
# peptide: QCAAGASYPWPVCL
# notes: as for B1
# B10: Phage-1449 peptide (SEQ ID NO: 1745) (peptide)
# peptide: TCSAGATYAWPACY
# notes: as for B1
# B11: Phage-1437 (peptide-92 library clone, SEQ ID NO: 1733) (peptide)
# peptide: TCAAGAYWTWPACF
# notes: Tested as clonal phage supernatant; not shown: fused to the pIII filament of the bacteriophage
# B12: Phage-1443 (peptide-92 library clone, SEQ ID NO: 1739) (peptide)
# peptide: TCRAGATYNWPFCL
# notes: as for B11
# B13: Phage-1432 (peptide-92 library clone, SEQ ID NO: 1728) (peptide)
# peptide: TCSAGAHYPWPDCI
# notes: as for B11
# B14: Phage-1436 (peptide-92 library clone, SEQ ID NO: 1732) (peptide)
# peptide: TCSAGAMWTWPYCF
# notes: as for B11
# B15: Phage-1445 (peptide-92 library clone, SEQ ID NO: 1741) (peptide)
# peptide: TCAAGASYPWPACL
# notes: as for B11
# B16: Phage-1441 (peptide-92 library clone, SEQ ID NO: 1737) (peptide)
# peptide: TCSAGAHYVWPMCF
# notes: as for B11
# B17: Phage-1440 (peptide-92 library clone, SEQ ID NO: 1736) (peptide)
# peptide: TCSAGATWAWPSCF
# notes: as for B11
# B18: Phage-1439 (peptide-92 library clone, SEQ ID NO: 1735) (peptide)
# peptide: SCSAGASLQLSICL
# notes: as for B11
# B19: Phage-1435 (peptide-92 library clone, SEQ ID NO: 1731) (peptide)
# peptide: MCSAGAMYPWPLCL
# notes: as for B11
# B20: Phage-1434 (peptide-92 library clone, SEQ ID NO: 1730) (peptide)
# peptide: LCNAGAMYKWPTCL
# notes: as for B11
# B21: Phage-1444 (peptide-92 library clone, SEQ ID NO: 1740) (peptide)
# peptide: TCSAGATWPWPICL
# notes: as for B11
# B22: Phage-1442 (peptide-92 library clone, SEQ ID NO: 1738) (peptide)
# peptide: TCSAGATYIWPMCF
# notes: as for B11
# B23: Phage-1431 (peptide-92 library clone, SEQ ID NO: 1727) (peptide)
# peptide: LCKPGVPNSWPTCL
# notes: as for B11
# B24: Phage-1433 (peptide-92 library clone, SEQ ID NO: 1729) (peptide)
# peptide: PCAAGAMWPWPVCL
# notes: as for B11
# B25: Phage-1438 (peptide-92 library clone, SEQ ID NO: 1734) (peptide)
# peptide: TCSAGAGYPWPLCY
# notes: as for B11
# Biological target: T1, Anti-CD28 Fab (SEQ ID NOs: 696, 697)
# T1 construct: In the phage ELISA the Fab was biotinylated and captured on neutravidin coated plates
# Test: phage ELISA on plate-bound anti-CD28 Fab pre-incubated with CD28 antigen as competitor
# T1 sequence (VH, as listed by the source, chain 1 of 2): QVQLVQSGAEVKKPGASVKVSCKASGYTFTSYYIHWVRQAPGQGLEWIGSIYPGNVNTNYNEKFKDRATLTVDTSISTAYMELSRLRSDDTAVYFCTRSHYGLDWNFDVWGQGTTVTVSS
# T1 sequence (VL, as listed by the source, chain 2 of 2): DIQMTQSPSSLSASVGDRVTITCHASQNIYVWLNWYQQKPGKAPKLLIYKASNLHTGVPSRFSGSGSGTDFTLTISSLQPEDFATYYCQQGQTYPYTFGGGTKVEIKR
# Procedure: (§1) Clonal phage were harvested as crude supematants and screened via standard ELISAs. […] Prior to the addition of clonal phage, wells were incubated with blocking buffer and CD28 antigen or blocking buffer alone. Without washing or aspirating, clonal phage supematants were then added to the wells and incubated for a short time. Wells were then washed followed by detection of bound phage using a horse radish conjugated anti-M13 antibody.
row,Binder,Anti-CD28 Fab signal in the presence of CD28 (phage binding ELISA)
1,LCAAGAHYPWPQCL [Phage-1384 peptide (SEQ ID NO: 1680)],0.07
2,LCNAGATYSWPTCL [Phage-1387 peptide (SEQ ID NO: 1683)],0.06
3,TCAAGAAYPWPLCF [Phage-1377 peptide (SEQ ID NO: 1673)],0.11
4,MCSAGANWPWPLCF [Phage-1379 peptide (SEQ ID NO: 1675)],0.07
5,TCSAGATYTWSKCF [Phage-1386 peptide (SEQ ID NO: 1682)],0.06
6,NCSAGAQWPWPICL [Phage-1383 peptide (SEQ ID NO: 1679)],0.08
7,TCAAGATYAWPYCV [Phage-1376 peptide (SEQ ID NO: 1672)],0.09
8,TCAAGAHWPWPTCF [Phage-1385 peptide (SEQ ID NO: 1681)],0.07
9,TCAAGANWEWPWCF [Phage-1375 peptide (SEQ ID NO: 1671)],0.08
10,MCAAGFHYPWPACL (cysteine pairing not given here; also: fused to phage pIII protein) [Phage-1374 peptide (SEQ ID NO: 1670)],0.1
11,SCAAGAMYSWPTCL [Phage-1382 peptide (SEQ ID NO: 1678)],0.08
12,NCSAGATYPWPLCL [Phage-1381 peptide (SEQ ID NO: 1677)],0.07
13,TCSAGASNKLSLCL [Phage-1378 peptide (SEQ ID NO: 1674)],0.06
14,RCSAGFHYPLSLCL [Phage-1380 peptide (SEQ ID NO: 1676)],0.06
15,TCSAGATYTWPWCF [Phage-1388 peptide (SEQ ID NO: 1684)],0.07

# Biological target: T2, Anti-CD28 Fab (SEQ ID NOs: 696, 697)
# T2 construct: In the phage ELISA the Fab was biotinylated and captured on neutravidin coated plates
# Test: phage ELISA; captured anti-CD28 Fab pre-incubated with CD28 antigen as competitor, anti-M13-HRP
# T2 sequence (VH, as listed by the source, chain 1 of 2): as the sequence (VH, as listed by the source, chain 1 of 2) above
# T2 sequence (VL, as listed by the source, chain 2 of 2): as the sequence (VL, as listed by the source, chain 2 of 2) above
# Procedure: as §1
row,Binder,"Phage binding ELISA, Anti-CD28 Fab signal in the presence of CD28"
1,B1,0.08
2,B2,0.08
3,B3,0.06
4,B4,0.08
5,B5,0.06
6,B6,0.07
7,B7,0.07
8,B8,0.11
9,B9,0.07
10,B10,0.14

# Biological target: T3, Anti-CD28 Fab (SEQ ID NOs: 696, 697)
# T3 construct: In the phage ELISA the Fab was biotinylated and captured on neutravidin coated plates
# Test: phage binding ELISA on captured anti-CD28 Fab, wells pre-incubated with CD28 antigen as competitor
# T3 sequence (VH, as listed by the source, chain 1 of 2): as the sequence (VH, as listed by the source, chain 1 of 2) above
# T3 sequence (VL, as listed by the source, chain 2 of 2): as the sequence (VL, as listed by the source, chain 2 of 2) above
# Procedure: (§2) Clonal phage were harvested as crude supematants and screened via standard ELISAs. […] Prior to the addition of clonal phage, wells were incubated with blocking buffer and CD28 antigen or blocking buffer alone. Without washing or aspirating, clonal phage supematants were then added to the wells and incubated for a short time. Wells were then washed followed by detection of bound phage using a horse radish conjugated anti-M13 antibody. Clonal phage of interest were then sent for sequence analysis.
row,Binder,Anti-CD28 Fab signal in the presence of CD28 (phage binding ELISA)
1,B11,0.09
2,B12,0.07
3,B13,0.07
4,B14,0.08
5,B15,0.09
6,B16,0.17
7,B17,0.1
8,B18,0.06
9,B19,0.07
10,B20,0.06
11,B21,0.08
12,B22,0.08
13,B23,0.06
14,B24,0.06
15,B25,0.08

# Biological target: T2, Anti-CD28 Fab (SEQ ID NOs: 696, 697)
# Test: phage ELISA; biotinylated anti-CD28 Fab on neutravidin plate, clonal phage detected with anti-M13-HRP
# Procedure: as §1
row,Binder,"Phage binding ELISA, Anti-CD28 Fab signal"
1,B1,1.83
2,B2,1.87
3,B3,1.85
4,B4,1.84
5,B5,1.83
6,B6,1.86
7,B7,1.84
8,B8,1.82
9,B9,1.82
10,B10,1.84

# Biological target: T3, Anti-CD28 Fab (SEQ ID NOs: 696, 697)
# Test: phage binding ELISA; biotinylated anti-CD28 Fab on neutravidin plate, bound phage detected with anti-M13-HRP;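 also: clonal phage tested as crude supernatants, given a short incubation in the Fab-captured wells before bound phage were read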
# Procedure: as §2
row,Binder,Anti-CD28 Fab signal (phage binding ELISA)
1,B11,1.93
2,B12,1.9
3,B13,1.95
4,B14,1.93
5,B15,1.89
6,B16,1.91
7,B17,1.92
8,B18,1.92
9,B19,1.93
10,B20,1.94
11,B21,1.89
12,B22,1.9
13,B23,1.95
14,B24,1.95
15,B25,1.92

# Biological target: T1, Anti-CD28 Fab (SEQ ID NOs: 696, 697)
# Test: phage ELISA; clonal phage supernatant on biotinylated anti-CD28 Fab captured on neutravidin plate, anti-M13-HRP detection
# Procedure: as §1
row,Binder,Anti-CD28 Fab signal (phage binding ELISA)
1,LCAAGAHYPWPQCL [Phage-1384 peptide (SEQ ID NO: 1680)],2.15
2,LCNAGATYSWPTCL [Phage-1387 peptide (SEQ ID NO: 1683)],2.14
3,TCAAGAAYPWPLCF [Phage-1377 peptide (SEQ ID NO: 1673)],2.18
4,MCSAGANWPWPLCF [Phage-1379 peptide (SEQ ID NO: 1675)],2.18
5,TCSAGATYTWSKCF [Phage-1386 peptide (SEQ ID NO: 1682)],2.15
6,NCSAGAQWPWPICL [Phage-1383 peptide (SEQ ID NO: 1679)],2.15
7,TCAAGATYAWPYCV [Phage-1376 peptide (SEQ ID NO: 1672)],2.21
8,TCAAGAHWPWPTCF [Phage-1385 peptide (SEQ ID NO: 1681)],2.15
9,TCAAGANWEWPWCF [Phage-1375 peptide (SEQ ID NO: 1671)],2.22
10,MCAAGFHYPWPACL (cysteine pairing not given here; also: fused to phage pIII protein) [Phage-1374 peptide (SEQ ID NO: 1670)],2.23
11,SCAAGAMYSWPTCL [Phage-1382 peptide (SEQ ID NO: 1678)],2.16
12,NCSAGATYPWPLCL [Phage-1381 peptide (SEQ ID NO: 1677)],2.17
13,TCSAGASNKLSLCL [Phage-1378 peptide (SEQ ID NO: 1674)],2.18
14,RCSAGFHYPLSLCL [Phage-1380 peptide (SEQ ID NO: 1676)],2.18
15,TCSAGATYTWPWCF [Phage-1388 peptide (SEQ ID NO: 1684)],2.14

# From US20260242478A1 (published 2026)
